The numbers were not newly measured in paper PMC7652413, which cites them from elsewhere.

In general, pKd refers to the negative decadic logarithm of the Kd, by convention in mol/L.

pKd: −log10 of the molar value.

The target in this data set is SARS-CoV-2 spike protein RBD (Severe acute respiratory syndrome coronavirus 2) (UniProt P0DTC2). As to the kind of experiment: SPR. A general note: In SPR one partner is held on a chip, and binding of the other changes the refractive index at the surface.

In the case of CD147 (basigin) (from UniProt P35613), the pKd was 6.73.
